Among the data in US20130196373 are binding signal (normalized ELISA), binding signal (fold vs canonical) and activity values, retold here.

Data set [1] deals with CXA TALE SNN (Xanthomonas (engineered)?).
Data set [2] concerns CXA TALE KKD S11K (repeat 5) (Xanthomonas (engineered)?).
The test system of data set [3] is CXA TALE KRI S11K (repeat 5) (Xanthomonas (engineered)?).
Data set [4] relates to CXA TALE SRD (Xanthomonas (engineered)?).
Data set [5] concerns CXA TALE NRD S11N (repeat 5) (Xanthomonas (engineered)?).
The test system of data set [6] is CXA TALE SNG (Xanthomonas (engineered)?).
Data set [7] has as its system CXA TALE SKD (Xanthomonas (engineered)?).
Data set [8] relates to CXA TALE SNI (pos 11-13) (Xanthomonas (engineered)?).
For data set [9], the system named is CXA TALE SHD (Xanthomonas (engineered)?).
Data set [10] relates to CXA TALE SRI (Xanthomonas (engineered)?).
The subject of data set [11] is CXA TALE KRD S11K (repeat 5) (Xanthomonas (engineered)?).
Data set [12] deals with TALE TR_ATTG CI-KG-QG-HN (Xanthomonas (engineered)?). Particulars: ELISA; site composed. For orientation: In an ELISA, binding on a coated surface is turned into a signal by an enzyme label.
For data set [13], the system named is TALE TR_ATTG HI-RG-MG-HN (Xanthomonas (engineered)?). Particulars: ELISA; site composed.
The subject of data set [14] is TALE TR_ATTG CI-MG-KG-HN (Xanthomonas (engineered)?). Particulars: ELISA; site composed.
The subject of data set [15] is TALE TR_ATAC HI-VA-CI-ND (Xanthomonas (engineered)?). Particulars: ELISA; site composed.
The subject of data set [16] is TALE TR_ATAC KI-MG-HI-RD (Xanthomonas (engineered)?). Particulars: ELISA; site composed.
Data set [17] relates to TALE TR_ATAC CI-VA-HI-ND (Xanthomonas (engineered)?). Particulars: ELISA; site composed.
Data set [18] relates to TALE TR_CAGA ND-HI-HN-KI (Xanthomonas (engineered)?). Particulars: ELISA; site composed.
For data set [19], the system named is TALE TR_CAGA KD-HI-FN-HI (Xanthomonas (engineered)?). Particulars: ELISA; site composed.
The subject of data set [20] is TALE TR_CAGA AD-HI-GN-HI (Xanthomonas (engineered)?). Particulars: ELISA; site composed.
For data set [21], the system named is TALEN 101041 (L) (Xanthomonas (engineered)?). Put plainly: cell_activity. Particulars: paired with 101047, K562.
In data set [22] the test system is TALEN 1-1 (Xanthomonas (engineered)?). Put plainly: cell_activity. Particulars: paired with 101047.
The subject of data set [23] is TALEN 2-1 (Xanthomonas (engineered)?). Briefly: cell_activity. Particulars: paired with 101047.
Data set [24] has as its system TALEN Condition 1 lane 40 (Xanthomonas (engineered)?). Briefly: cell_activity. Particulars: paired with 101047.
Data set [25] deals with TALEN Condition 2 lane 45 (Xanthomonas (engineered)?). Briefly: cell_activity. Particulars: paired with 101047.
Data set [26] deals with TALEN 101662 (L538-C17-ELD) (Xanthomonas (engineered)?). Briefly: cell_activity. Particulars: paired with 101664, 12 bp gap, K562.
Data set [27] has as its system TALEN 102297 (L538NC-C17-ELD) (Xanthomonas (engineered)?). Briefly: cell_activity. Particulars: paired with 101664, 12 bp gap, K562.
Data set [28] concerns TALEN 102204 (L*) (Xanthomonas (engineered)?). Put plainly: cell_activity. Particulars: paired with 102109, K562.
Data set [29] deals with TALE TR_TACA canonical (Xanthomonas (engineered)?). Particulars: ELISA, AFU 779; site composed.
Data set [30] deals with TALE TR_TACA VA-CI-ND-HI (Xanthomonas (engineered)?). Particulars: ELISA; full site composed from anchor + subsite.
Data set [31] deals with TALE TR_TACA KG-KI-KD-CI (Xanthomonas (engineered)?). Particulars: ELISA; site composed.
Data set [32] has as its system TALE TR_TACA RG-HI-RD-KI (Xanthomonas (engineered)?). Particulars: ELISA; full site composed from anchor + subsite.
Data set [33] concerns CXA TALE SAK (Xanthomonas (engineered)?).
Data set [34] has as its system CXA TALE NRI S11N (repeat 5) (Xanthomonas (engineered)?).
In data set [35] the test system is CXA TALE KAK S11K (repeat 5) (Xanthomonas (engineered)?).
Data set [36] relates to TALE TL_CTTC RD-RG-RG-KD (Xanthomonas (engineered)?). Particulars: ELISA; site composed.
Data set [37] has as its system TALE TL_CTTC RD-RG-MG-ND (Xanthomonas (engineered)?). Particulars: ELISA; site composed.
For data set [38], the system named is TALE TL_CTTC RD-RG-KG-AD (Xanthomonas (engineered)?). Particulars: ELISA; site composed.
For data set [39], the system named is TALEN 101238c (Xanthomonas (engineered)?). Briefly: cell_activity. Particulars: paired with 101236, K562; SELEX preference improved.
Data set [40] relates to TALEN 101238d (Xanthomonas (engineered)?). Briefly: cell_activity. Particulars: paired with 101236, K562.
In data set [41] the test system is TALEN 101238a (Xanthomonas (engineered)?). Put plainly: cell_activity. Particulars: paired with 101236, K562; SELEX preference improved.
Data set [42] deals with TALEN 101238 (Xanthomonas (engineered)?). Briefly: cell_activity. Particulars: paired with 101236, K562.
The subject of data set [43] is TALEN 101238e (Xanthomonas (engineered)?). Briefly: cell_activity. Particulars: paired with 101236, K562; SELEX not interpretable.
In data set [44] the test system is TALEN 101238b (Xanthomonas (engineered)?). Put plainly: cell_activity. Particulars: paired with 101236, K562; SELEX preference improved.
Data set [45] concerns TALE 101048-BfiI (Xanthomonas/Bacillus (engineered)?). Briefly: cell_activity. Particulars: paired with 101043-BfiI, K562.
Data set [46] relates to TALE 101043-BfiI (Xanthomonas/Bacillus (engineered)?). Put plainly: cell_activity. Particulars: paired with 101047-BfiI, K562.
Data set [47] deals with TALE TR_CCTG RD-ND-AA-HN (Xanthomonas (engineered)?). Particulars: ELISA; site composed.
Data set [48] deals with TALE TR_CCTG canonical (Xanthomonas (engineered)?). Particulars: ELISA, AFU 1020; site composed.
The test system of data set [49] is TALE TR_CCTG ND-KD-HG-HN (Xanthomonas (engineered)?). Particulars: ELISA; site composed.
Data set [50] deals with TALE TR_CCTG AD-RD-HG-HN (Xanthomonas (engineered)?). Particulars: ELISA; site composed.
Data set [51] concerns TALE TL_TCAT QG-KD-KI-AA (Xanthomonas (engineered)?). Particulars: ELISA.
The subject of data set [52] is TALE TL_TCAT AA-KD-KI-MG (Xanthomonas (engineered)?). Particulars: ELISA.
Data set [53] concerns TALE TL_TCAT canonical (Xanthomonas (engineered)?). Particulars: ELISA, AFU 204.
For data set [54], the system named is TALE TL_TCAT QG-AD-HI-KG (Xanthomonas (engineered)?). Particulars: ELISA.
In data set [55] the test system is TALE 101042-BfiI (Xanthomonas/Bacillus (engineered)?). Briefly: cell_activity. Particulars: paired with 101047-BfiI, K562.
The test system of data set [56] is TALEN 101047 (R) (Xanthomonas (engineered)?). Put plainly: cell_activity. Particulars: paired with 101041, K562.
Data set [57] concerns TALEN 3-1 (Xanthomonas (engineered)?). Put plainly: cell_activity. Particulars: paired with 101041.
In data set [58] the test system is TALE 101047-BfiI (Xanthomonas/Bacillus (engineered)?). Put plainly: cell_activity. Particulars: paired with 101043-BfiI, K562.
Data set [59] deals with TALEN Condition 3 lane 8 (Xanthomonas (engineered)?). Briefly: cell_activity. Particulars: paired with 101041.
In data set [60] the test system is TALEN 4-1 (Xanthomonas (engineered)?). Briefly: cell_activity. Particulars: paired with 101041.
Data set [61] concerns TALEN 102109 (R*) (Xanthomonas (engineered)?). Put plainly: cell_activity. Particulars: paired with 102204, K562.
For data set [62], the system named is TALEN Condition 4 lane 64 (Xanthomonas (engineered)?). Put plainly: cell_activity. Particulars: paired with 101041.
Data set [63] concerns TALEN 101664 (R551-C17-KKR) (Xanthomonas (engineered)?). Put plainly: cell_activity. Particulars: paired with 101662, 12 bp gap, K562.
For data set [64], the system named is TALE TR_CAGC ND-KI-FN-AD (Xanthomonas (engineered)?). Particulars: ELISA.
Data set [65] concerns TALE TR_CAGC canonical (Xanthomonas (engineered)?). Particulars: ELISA, AFU 649.
Data set [66] relates to TALE TR_CAGC RD-HI-HN-ND (Xanthomonas (engineered)?). Particulars: ELISA.
For data set [67], the system named is TALE TR_CAGC RD-HI-GN-ND (Xanthomonas (engineered)?). Particulars: ELISA.

Read-outs that look alike come from different tables or passages of the source.

For the substance “TTGACCATCCT (double strand) [CCA target]”, the binding signal (normalized ELISA) in data set [1] worked out at 0.01; in [2], 0.64; in data set [3], 0.28; in [4], 0.91; in data set [5], 0.53; in data set [6] it was 0.15. Further, the binding signal (normalized ELISA) was 0.5 in data set [7]; 0.06 in data set [8]; 1.29 in data set [9]; 0.04 in data set [10]; 0.85 in data set [11].

For the substance “TTGACATTGT (double strand) [TR ATTG target]”, the figures for the binding signal (fold vs canonical) in [12], in data set [13] and in data set [14] were 1.12, 0 and 1.22, respectively.

In the case of “TTGACATACT (double strand) [TR ATAC target]”, the binding signal (fold vs canonical) in [15] was determined as 1.36; in data set [16], 0.47; in [17] it was 1.4.

In the case of “TTGACCAGAT (double strand) [TR CAGA target]”, the binding signal (fold vs canonical) in [18] was found to be 1.28; in [19] it was 1.3; in data set [20], 0.04.

As to “TTCATTACACCTGCAGCT (double strand) [CCR5 L538 half-site]”, the activity in data set [21] was found to be 50.6 % indels; in data set [22], 36.6 % NHEJ; in [23], 64.1 % NHEJ; in [24], 0 % NHEJ; in data set [25], 0 % NHEJ; in data set [26], 59 % NHEJ. The activity in data set [27] came to 56.2 % NHEJ; in data set [28], 65.2 % indels.

For the substance “TTGACTACAT (double strand) [TR TACA target]”, the binding signal (fold vs canonical) came to 1 in data set [29], 1.57 in data set [30], 0.48 in data set [31] and 1.62 in data set [32].

“TTGACTATCCT (double strand) [CTA target]”: the binding signal (normalized ELISA) was 0.03 in data set [1], 0.99 in data set [6], 0.02 in data set [8] and 0.12 in data set [9].

For “TTGACAATCCT (double strand) [CAA target]”, the binding signal (normalized ELISA) in data set [1] was 1.12; in [2], 0.25; in [3], 0.74; in [4], 0.26; in [5] it was 0.07; in data set [33], 0.01. In addition, the binding signal (normalized ELISA) in [34] was 0; in [35], 0.05; in data set [6], 0.63; in [7] it was 0.14; in [8] (flanking RVDs inferred from anchors), 0.96; in data set [9] it was 0.38. Further, the binding signal (normalized ELISA) in data set [10] came out at 0.51; in data set [11], 0.48.

As to “TCTTCATCCT (double strand) [TL CTTC target]”, the binding signal (fold vs canonical) worked out at 13.8 in data set [36], 0.16 in data set [37] and 8.22 in data set [38].

On to PITX3 target of 101238, for which the activity in data set [39] is 44 % indels; in data set [40], 43 % indels; in data set [41] it was 54 % indels; in data set [42], 34 % indels; in data set [43], 22 % indels; in data set [44], 50 % indels.

Substance “TTCTTCCAGAATTGAT (double strand) [101048 half-site]” returned an activity in [45] of 0.27 % indels.

In data set [46], “TACACCTGCAGCTCTCAT (double strand) [101043 half-site]” registered an activity of 0.75 % indels.

Take “TTGACGATCCT (double strand) [CGA target]”: the binding signal (normalized ELISA) in data set [1] came to 0.76; in data set [33], 0.21; in data set [35] it was 0.28; in data set [6] it was 0.11; in data set [8], 0.01; in data set [9], 0.01.

As to “TTGACCCTGT (double strand) [TR CCTG target]”, the binding signal (fold vs canonical) in [47] was 0.02; in data set [48], 1; in data set [49], 1.07; in data set [50], 1.3.

Take “TTCATATCCT (double strand) [TL TCAT target]”: the binding signal (fold vs canonical) in [51] stood at 2.34; in data set [52] it was 0.05; in [53] it was 1; in data set [54] it was 2.26.

In the case of “TACACCTGCAGCTCT (double strand) [101042 half-site]”, the activity in data set [55] was 0.11 % indels.

Regarding “TCTTCCAGAATTGATACT (double strand) [CCR5 R557 half-site]”, the activity in [56] amounted to 50.6 % indels; in data set [57] it was 56.3 % NHEJ; in data set [58], 0.75 % indels; in [59] it was 0 % NHEJ; in data set [60], 59.5 % NHEJ; in data set [61] it was 65.2 % indels. Also, the activity in data set [62] was found to be 0 % NHEJ.

Regarding “TGATACTGACTGT (double strand) [CCR5 R551 half-site]”, the activity in data set [63] came to 59 % NHEJ.

Turning to “TTGACCAGCT (double strand) [TR CAGC target]”, the binding signal (fold vs canonical) in data set [64] came to 0; in data set [65] it was 1; in [66], 1.52; in data set [67], 0.4.
